# From PMC4860158 (Journal of neurochemistry, 2016)
# B1: Gloeobacter violaceus ligand-gated ion channel (GLIC), wild type, pentameric assembly (natural protein, UniProt Q7NDN8 44-359, looked up)
# chain: QDMVSPPPPIADEPLTVNTGIYLIECYSLDDKAETFKVNAFLSLSWKDRRLAFDPVRSGVRVKTYEPEAIWIPEIRFVNVENARDADVVDISVSPDGTVQYLERFSARVLSPLDFRRYPFDSQTLHIYLIVRSVDTRNIVLAVDLEKVGKNDDVFLTGWDIESFTAVVKPANFALEDRLESKLDYQLRISRQYFSYIPNIILPMLFILFISWTAFWSTSYEANVTLVVSTLIAHIAFNILVETNLPKTPYMTYTGAIIFMIYLFYFVAVIEVTVQHYLKVESQPARAASITRASRIAFPVVFLLANIILAFLFFGF
# Biological target: the molecule itself
# Assay: SEC
protein,measurement,value
B1,stoichiometry N,5
